Publication PMC11145796, “Environmental activity-based protein profiling for function-driven enzyme discovery from natural communities” (Environmental Microbiome, 2024)

Assays:
[1] = target: T1, putative esterase / UPF0227 protein ExploCarb_3811S_S4_483_length_13114_cov_941_5 (Sulfurihydrogenibium sp., UniProt A0A2J6WYH8)
T1 construct: gene C0178_06060
T1 sequence (A0A2J6WYH8 1-191): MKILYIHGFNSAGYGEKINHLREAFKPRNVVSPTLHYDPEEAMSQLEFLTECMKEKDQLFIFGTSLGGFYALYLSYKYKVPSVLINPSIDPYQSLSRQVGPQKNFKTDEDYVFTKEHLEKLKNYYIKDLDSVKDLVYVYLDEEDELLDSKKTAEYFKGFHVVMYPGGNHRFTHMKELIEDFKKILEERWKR

[2] = substrate: CC(=O)Oc1ccc([N+](=O)[O-])cc1; assay: pNP-ester hydrolysis kinetics; type: biochemical, Sulfurihydrogenibium sp.; details: pH 8.0, 70 °C, substrate up to 0.7 mM
[3] = substrate: CCCCCCCC(=O)Oc1ccc([N+](=O)[O-])cc1; assay: pNP-ester hydrolysis kinetics; type: biochemical, Sulfurihydrogenibium sp.; details: pH 8.0, 70 °C, substrate up to 0.7 mM
[4] = substrate: CCCC(=O)Oc1ccc([N+](=O)[O-])cc1; assay: pNP-ester hydrolysis kinetics; type: biochemical, Sulfurihydrogenibium sp.; details: pH 8.0, 70 °C, substrate up to 0.7 mM

Row | Molecule | competition with FP-alkyne labelling of purified esterase (pre-incubation) [1] | Km [2] | Km [3] | Km [4]
1 | CCOP(=O)(OCC)Oc1ccc([N+](=O)[O-])cc1 [paraoxon] | could be strongly diminished by pre-incubation with the generic serine esterase inhibitor paraoxon |  |  | 
2 | putative esterase / UPF0227 protein ExploCarb_3811S_S4_483_length_13114_cov_941_5 (Sulfurihydrogenibium sp.) (protein, 191 amino acids; codon-optimized gene in pET-28b(+), expressed in E. coli Rosetta(DE3), purified; motif G63-T64-S65-L66-G67) MKILYIHGFNSAGYGEKINHLREAFKPRNVVSPTLHYDPEEAMSQLEFLTECMKEKDQLFIFGTSLGGFYALYLSYKYKVPSVLINPSIDPYQSLSRQVGPQKNFKTDEDYVFTKEHLEKLKNYYIKDLDSVKDLVYVYLDEEDELLDSKKTAEYFKGFHVVMYPGGNHRFTHMKELIEDFKKILEERWKR |  | 0.12 mM | 0.16 mM | 0.18 mM
